Measurements from US20230090114A1, “METHODS FOR PROMOTING WEIGHT LOSS” (89BIO LTD., priority 2020, published 2023).

Legend:
[1] = Indirect calorimetry: VO2, VCO2, EE, RER (METABOpack sessions); format: in vivo, CD-1 mice
Protocol: The Physiocage System allows recording the O2 consumption (VO2) and the CO2 production (VCO2) by indirect calorimetry. For each animal, both VO2 and VCO2 were recorded for 3 min every 30 minutes and the mean values were calculated by the system.
Energy Expenditure (EE) and Respiratory Exchange Ratio (RER) were calculated with formulas that are based on VO2 and VCO2 values: […]
Analysis of these parameters was performed as follows: for each mouse, the mean values were calculated from the corresponding recordings for each nycthemeral phase (Diurnal Phase or DP, Nocturnal Phase or NP and Whole day or WD). The means per nycthemeral phase were then calculated for each group for statistical comparisons.

[2] = Body composition (minispec Analyzer, TD-NMR); format: in vivo, CD-1 mice
Protocol: For body composition analyses, a minispec Analyzer (LF90II, Bruker, Germany) was used. The LF90II provides an accurate measure of the whole-body lean mass, fat mass and free fluid mass in living and vigil animals.
Body composition was measured using a minispec Analyzer (LF90II, Bruker, Germany) one (1) day before treatment start on habituation day 7 (H7) and on treatment day 13 (T13) and treatment day 25 (T25) of Treatment days. Briefly, each mouse was placed in a red clear plastic tube sealed by a plunger. Then, the tube was inserted into the minispec Analyzer for measurement of body composition (˜ 2 min/measurement). Once the measurement completed, the mouse was removed from the plastic tube and immediately replaced into its cage. The tube and the plunger were washed and dried between each mouse. As a reminder, the Minispec analyser allows fast and precise measurements of fat tissue (g) (adipose tissue), lean tissue (g) (mainly muscles) and free fluid content (g). It should be noted that each measurement was performed just prior to a METABOpack™ session in order to normalize the respiratory exchanges-related parameters of each mouse by its lean mass (see METABOpack™ session section).
General Methods: Naive CD-1 mice were treated subcutaneously (SC) for 4 weeks at ambient temperature with BIO89-100 at doses of 0, 0.3, 1.0 and 3.0 mg/kg (3qW×4 weeks) or with liraglutide at 0.2 mg/kg (BID×4 W; SC). BW and FC were measured daily throughout the treatment period. To investigate the impact of BIO89-100 on energy expenditure, the respiratory exchanges (VO2 and VCO2) were recorded during 3 distinct sessions of METABOpack™, a multiparametric approach allowing an automated and simultaneous recording of FC, water intake, respiratory exchanges and spontaneous activity. Meal pattern analysis was conducted on the high-resolution recordings of FC. The body composition (fat, lean and fluid masses) was analyzed 3 times during the study by the mean of Time-Domain Nuclear Magnetic Resonance (TD-NMR).

[3] = Organ/tissue weights on T28; format: in vivo, CD-1 mice; settings: for eWAT weight: T28
Protocol: On T28, after 4 hours of fasting, a terminal sampling of blood and organs/tissues was performed on anaesthetized mice (by a mixture of Ketamine/Xylazine, 80/10 mg/kg). A large blood sample was collected by cardiac puncture, and the following organ/tissues were collected, weighed, snap-frozen in liquid nitrogen and stored at −80° C. for further analyses: […]

[4] = Diet-induced NASH model in mice; format: in vivo; settings: 0.3 mg/kg, 3 times/week
[5] = T1, whatever the dose, vs vehicle
[6] = T2, DP and WD, whatever the dose, vs Liraglutide
[7] = T2, whatever the dose, vs vehicle
[8] = T14, DP, 3 mg/kg, vs Liraglutide
[9] = T14, NP and WD, whatever the dose, vs Liraglutide
[10] = T14, NP and WD, whatever the dose, vs vehicle
[11] = T14, between the three 89BIO-100 groups
[12] = T15, NP and WD, 1 and 3 mg/kg, vs vehicle
[13] = T15, between the three 89BIO-100 groups
[14] = T15, whatever the phase, 1 and 3 mg/kg, vs Liraglutide
[15] = T27, NP, whatever the dose, vs vehicle
[16] = T27, WD, 0.3 and 1 mg/kg, vs Liraglutide
[17] = T27, WD, 0.3 and 1 mg/kg, vs vehicle
[18] = T27, between the three 89BIO-100 groups
[19] = BIO89-100-treated CD-1 mice, overall
[20] = T13, three doses, vs Liraglutide

B1: Mutant FGF21-GalNAc-SA-PEG-20 kDa (conjugate)
chain: MHPIPDSSPLLQFGGQVRQRYLYTDDAQQTEAHLEIREDGTVGGAADQSPESLLQLKALKPGVIQILGVKTSRFLCQRPDGALYGSLHFDPEACSFRELLLEDGYNVYQSEAHGLPLHLPGNKSPHRDPAPRGPARFLPLPGLPPALPEPPGILAPQPPDVGSSDPLSMVGPTQGASPSYAS
[1]; T1, NP and WD, whatever the dose, vs Liraglutide
  RER: increase in RER
[1]; T1, NP, whatever the dose, vs Liraglutide
  VCO2: increase in VCO2
[1]; T1, between 89BIO-100 groups
  RER: no significant difference
[1]; T1, between all 89BIO-100 groups
  VCO2: no significant difference
[1]; [5]
  RER: No significant difference
  VCO2: No significant difference
[1]; [6]
  EE: increase in EE
  VO2: increase in VO2
[1]; T2, between 89BIO-100 groups
  EE: no significant difference
[1]; T2, between the three 89BIO-100 groups
  VO2: no significant difference
[1]; [7]
  EE: No significant difference
  VO2: No significant difference
[1]; [8]
  EE: increased
  VO2: increased
[1]; T14, DP, 3 mg/kg, vs vehicle
  EE: increased
  VO2: increased
[1]; [9]
  EE: increase in EE
  RER: decrease in RER
  VO2: increase in VO2
[1]; [10]
  EE: increased
  VO2: increased
[1]; T14, NP, whatever the dose, vs Liraglutide
  VCO2: increase in VCO2
[1]; T14, NP, whatever the dose, vs vehicle
  VCO2: increased
[1]; T14, WD, 1 and 3 mg/kg, vs Liraglutide
  VCO2: increased
[1]; T14, WD, 1 and 3 mg/kg, vs vehicle
  VCO2: increased
[1]; [11]
  EE: no significant difference
  VCO2: no significant difference
  VO2: no significant difference
[1]; T14, whatever the dose, vs vehicle
  RER: No significant difference
[1]; T15, DP, 1 mg/kg, vs vehicle
  EE: increased
  VCO2: increased
  VO2: increased
[1]; [12]
  EE: increased
  VCO2: increased
  VO2: increased
[1]; [13]
  EE: no significant difference
  VCO2: no significant difference
  VO2: no significant difference
[1]; [14]
  EE: increase in EE
  VCO2: increase in VCO2
  VO2: increase in VO2
[1]; T27, NP and WD, 0.3 and 1 mg/kg, vs vehicle
  VCO2: increased
[1]; T27, NP and WD, dose of 1, vs Liraglutide
  VCO2: increase in VCO2
[1]; T27, NP, 1 and 3 mg/kg, vs Liraglutide
  VO2: increase in VO2
[1]; T27, NP, dose of 1, vs Liraglutide
  EE: increase in EE
[1]; [15]
  EE: increased
  VO2: increased
[1]; [16]
  EE: increased
  VO2: increase in VO2
[1]; [17]
  EE: increased
  VO2: increased
[1]; [18]
  EE: no significant difference
  VCO2: no significant difference
  VO2: no significant difference
[1]; concluded from energy expenditure effects
  thermogenesis: increased
[1]; summary, second (T14/T15) and third (T27) METABOpack session, vs Vehicle
  energy expenditure: increase in energy expenditure
[2]; [19]
  fat mass: marked decrease in fat mass
  lean masses and body fluid: without affecting
[2]; T13, 3 mg/kg, vs 0.3 mg/kg
  fat mass (g): significantly decreased
  fluid mass (g): significantly decreased
[2]; T13, 3 mg/kg, vs 0.3 and 1 mg/kg
  lean mass (g): reduction in lean mass
[2]; T13, 3 mg/kg, vs vehicle
  fluid mass (g): significantly decreased
  lean mass (g): significantly decreased
[2]; T13, 1 and 3 mg/kg, vs vehicle
  fat mass (g): reduction in fat mass
[2]; [20]
  fat mass (g): No significant difference
  fluid mass (g): No significant difference
  lean mass (g): No significant difference
[2]; T25, 1 and 3 mg/kg, vs vehicle
  fat mass (g): reduction in fat mass
[2]; T25, three doses, vs Liraglutide
  fat mass (g): No significant difference
[2]; T25 minus H7, 1 and 3 mg/kg, vs vehicle and Liraglutide
  delta fat mass (g): lower
[3]; 89BIO-100 treated mice (summary)
  epididymal white adipose tissue (eWAT) weight: strongly reduced
[3]; 1 and 3 mg/kg, vs vehicle
  eWAT weight: significant decrease in eWAT weight
[3]; among the three 89BIO-100 groups
  eWAT weight: no significant difference
[4]
  efficacy in Diet-induced NASH model: effective
